Data on ten molecules can be found in patent publication US20150266962A1.

Experiment [1] addresses human IL-13Rα2 on the surface of human tumour cell lines (human) (UniProt Q14627). The experiment is described as follows: FACS, 10 µg/mL, A375 (melanoma) cells.
Experiment [2] has the same target. Nature of the experiment: FACS, 10 µg/mL, H460 (lung, cisplatin resistant) cells. (A flow cytometer gives signals particle by particle.)
Experiment [3] has the same target. The experiment is described as follows: FACS, 10 µg/mL, Hs766T (pancreatic) cells.
Experiment [4] shares this target. The experiment is described as follows: FACS, 10 µg/mL, PC3MM2 (prostate) cells.
The target is the same in experiment [5]. Nature of the experiment: cell-based or functional assay.
Experiment [6] shares this target. The experiment is described as follows: FACS, 10 µg/mL, SW626 (ovarian) cells.
For experiment [7] the target is unchanged. Nature of the experiment: FACS, 10 µg/mL, A498 (renal) cells.
Experiment [8] shares this target. The experiment is described as follows: FACS, 10 µg/mL, U87MG (glioblastoma) cells.
Experiment [9] has the same target. The experiment is described as follows: FACS on A375 cells.
For experiment [10] the target is unchanged. The experiment is described as follows: cell-based ELISA on A375 cells (given as ED50). (An ELISA detects its analyte on a solid surface through an enzyme-linked reagent.)
The target is the same in experiment [11]. Nature of the experiment: competition ELISA on A375 cells, competitor biotinylated ch07.

In general, EC50 refers to the concentration giving half of the maximal effect. A low value points to an effect from little substance. In general, IC50 refers to the midpoint of a concentration-inhibition curve. High values mean weaker potency, low ones greater potency.

Where a chain is given by its changes, count along the chain named.

human IL-13Rα2 on the surface of human tumour cell lines (human), sequence (Q14627 27-380): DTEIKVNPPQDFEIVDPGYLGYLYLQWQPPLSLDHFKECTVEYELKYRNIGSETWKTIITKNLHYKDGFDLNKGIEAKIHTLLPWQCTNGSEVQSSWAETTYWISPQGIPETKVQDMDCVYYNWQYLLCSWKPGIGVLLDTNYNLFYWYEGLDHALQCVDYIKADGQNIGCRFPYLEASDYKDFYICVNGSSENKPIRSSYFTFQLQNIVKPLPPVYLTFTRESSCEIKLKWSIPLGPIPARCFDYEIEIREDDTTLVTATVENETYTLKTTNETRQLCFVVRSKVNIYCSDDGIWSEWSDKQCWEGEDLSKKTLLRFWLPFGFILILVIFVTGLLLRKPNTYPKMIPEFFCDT

B1: murine anti-IL-13Rα2 antibody mu08 (antibody, mouse IgG1, V domains shown)
VH: EVQLVESGGDLVRPGGSLQLSCAASGFTFSRNGMSWVRQTPDRRLEWVATVSSGGSYIYYADSVKGRFTISRDNARNTLYLQMSSLKSEDTAMYYCARQGTTALATRFFDVWGAGTTVTVSS
VL: DIVMTQSHKFISTSVGDRVSITCKASQDVGTAVAWYQQIPGQSPKLLIYSASYRSTGIPDRFTGSGSGTDFSFIISSVQAEDLALYYCQHHYSAPWTFGGGTTLDIK
On to B1, for which the Mean Fluorescent Intensity in experiment [1] worked out at 46000. Further, in experiment [2], the Mean Fluorescent Intensity turned out to be 22000. Also, the Mean Fluorescent Intensity in experiment [3] worked out at 14000. Moreover, the Mean Fluorescent Intensity in experiment [4] worked out at 72000. In [5], this molecule came in with a % internalization, 15 min, A375 of 68%; a % internalization, 15 min, H460R of 55.9%; a % internalization, 15 min, Hs766T of 64.1%; a % internalization, 15 min, PC3MM2 of 81.9%. In experiment [5], this molecule had a % internalization, 4 hours, A375 of 61.8%; a % internalization, 4 hours, H460R of 47.4%; a % internalization, 4 hours, Hs766T of 76.3%; a % internalization, 4 hours, PC3MM2 of 41.6%. The internalized after a 1 hour incubation with A375 cells at 37° C. in experiment [5] turned out to be 31%. In addition, in [6], the Mean Fluorescent Intensity was 8000. For the same molecule, in [7], the Mean Fluorescent Intensity turned out to be 5000. In addition, the Mean Fluorescent Intensity in [8] was 62000.

B2: chimeric antibody ch08 (antibody, human IgG1, V domains shown)
VH: B1 VH
VL: B1 VL
In [9], B2 displayed an EC50 of 5.64 nM.

B3: humanized antibody hu08 v1.0 HC/v1.1 LC (antibody, IgG1, V domains shown)
VH: EVQLVESGGGLVQPGGSLRLSCAASGFTFSRNGMSWVRQAPGKGLEWVATVSSGGSYIYYADSVKGRFTISRDNAKNSLYLQMNSLRAEDTAVYYCARQGTTALATRFFDVWGQGTLVTVSS
VL: DIQMTQSPSSLSASVGDRVTITCKASQDVGTAVAWYQQIPGKAPKLLIYSASYRSTGVPDRFSGSGSGTDFSFIISSLQPEDFATYYCQHHYSAPWTFGGGTKVEIK
Regarding B3, in [9], the EC50 stood at 6.52 nM.

B4: humanized antibody hu08 v1.1 HC/v1.0 LC (antibody, IgG1, V domains shown)
VH: B3 VH with A40T, G42D, G44R, N84S
VL: B3 VL with I39K, D60S, S72T, F73L, I74T
On to B4, for which the half-maximal effective concentration (EC50) in experiment [9] was found to be 4.15 nM.

B5: humanized antibody hu08 v1.1 HC/v1.1 LC (antibody, IgG1, V domains shown)
VH: B3 VH with A40T, G42D, G44R, N84S
VL: B3 VL
The molecule B5 had a half-maximal effective concentration (EC50) in [9] of 5.16 nM.

B6: murine anti-IL-13Rα2 antibody mu07 (antibody, mouse IgG1, V domains shown)
VH: QVQLKESGPGLVAPSQSLSINCTVSGFSLTKYGVHWIRQSPGKGLEWLGVKWAGGSTDYNSALMSRLTISKDNNKSQVFLKMNSLQSDDSAMYYCARDHRDAMDYWGQGTSVTVSS
VL: QVVLTQSPAIMSASPGERVTMTCTASLSVSSTYLHWYHQKPGSSPKLWIYSTSNLASGVPARFSGSGSGTSYSLTISSMEAEDAATYYCHQYHRSPLTFGSGTKLELK
B6: the Mean Fluorescent Intensity in experiment [1] was 53000. Moreover, the Mean Fluorescent Intensity in experiment [2] was found to be 28000. The Mean Fluorescent Intensity in experiment [3] came out at 13000. Also, the Mean Fluorescent Intensity in experiment [4] was found to be 84000. Further, in experiment [5], the % internalization, 15 min, A375 worked out at 63.1%; the % internalization, 15 min, H460R turned out to be 74.4%; the % internalization, 15 min, Hs766T was 69.6%; the % internalization, 15 min, PC3MM2 worked out at 88.6%. In [5], the % internalization, 4 hours, A375 amounted to 38.1%; the % internalization, 4 hours, H460R stood at 38.4%; the % internalization, 4 hours, Hs766T turned out to be 69%; the % internalization, 4 hours, PC3MM2 amounted to 50.3%. The internalized after a 1 hour incubation with A375 cells at 37° C. in experiment [5] came out at 38%. The same molecule came in with a Mean Fluorescent Intensity in experiment [6] of 9000. The molecule also gave a Mean Fluorescent Intensity in experiment [7] of 13000. In experiment [8], the Mean Fluorescent Intensity was 61000.

B7: hu07 heavy chain v1.5 paired with chimeric light chain (antibody, V domains shown)
VH: EVQLVESGGGLVQPGGSLRLSCAASGFSLTKYGVHWVRQAPGKGLEWVGVKWAGGSTDYNSALMSRFTISKDNAKNSLYLQMNSLRAEDTAVYYCARDHRDAMDYWGQGTLVTVSS
VL: B6 VL
For B7, the EC50 in [10] was determined as 0.87 nM. In experiment [11], the IC50 stood at 7.67 nM.

B8: chimeric antibody ch07 (antibody, human IgG1, V domains shown)
VH: B6 VH
VL: B6 VL
B8 had an EC50 in experiment [10] of 0.85 nM. Besides, the IC50 in experiment [11] came to 17.3 nM.

B9: hu07 heavy chain v1.5 / light chain v1.0 (antibody, IgG1, V domains shown)
VH: B7 VH
VL: DIQMTQSPSSLSASVGDRVTITCTASLSVSSTYLHWYQQKPGKAPKLLIYSTSNLASGVPSRFSGSGSGTDFTLTISSLQPEDFATYYCHQYHRSPLTFGGGTKVEIK
Consider B9, for which, in experiment [10], the EC50 amounted to 1.17 nM. Also, the IC50 in experiment [11] is 12.3 nM.

B10: hu07 heavy chain v1.5 / light chain v1.1 (antibody, IgG1, V domains shown)
VH: B7 VH
VL: B9 VL with K43S, A44S, D71S
Turning to B10, the EC50 in experiment [10] is 1.29 nM. Moreover, the concentration for half-maximal inhibition (IC50) in [11] is 19 nM.
